Results published in PMC6969876, “NADPH biosensor-based identification of an alcohol dehydrogenase variant with improved catalytic properties caused by a single charge reversal at the protein surface” (AMB Express, 2020).

Target: the molecule itself
Experiment: SEC; Superdex 200 increase 10/300 GL, buffer A (50 mM triethanolamine hydrochloride, 1 mM MgCl2, pH 7.0), 0.75 mL/min; apparent native mass from a calibration curve with carbonic anhydrase, bovine serum albumin, alcohol dehydrogenase and beta-amylase; affinity-purified protein loaded

B1: NADPH-dependent alcohol dehydrogenase of Lactobacillus brevis, wild type (LbADH^WT), with N-terminal Strep-tag II (enzyme, UniProt Q84EX5 1-252, looked up)
chain: MSNRLDGKVAIITGGTLGIGLAIATKFVEEGAKVMITGRHSDVGEKAAKSVGTPDQIQFFQHDSSDEDGWTKLFDATEKAFGPVSTLVNNAGIAVNKSVEETTTAEWRKLLAVNLDGVFFGTRLGIQRMKNKGLGASIINMSSIEGFVGDPSLGAYNASKGAVRIMSKSAALDCALKDYDVRVNTVHPGYIKTPLVDDLPGAEEAMSQRTKTPMGHIGEPNDIAYICVYLASNESKFATGSEFVVDGGYTAQ
notes: NADPH-dependent (R-specific) alcohol dehydrogenase of Lactobacillus brevis; 251 amino acid residues and 26.6 kDa per subunit as printed; calculated mass of the monomer with StrepTag-II 28.2 kDa; The plasmid pASK-IBA5plus-Lbadh^WT was a gift (Prof. W. Kroutil); not shown: Strep-tag II, N-terminal, kept
  stoichiometry N: 4
